Consider one molecule from PMC7490560 (2020).

For assay [1], the target named is T1, FOSB (Homo sapiens, UniProt P53539).
T1 chain: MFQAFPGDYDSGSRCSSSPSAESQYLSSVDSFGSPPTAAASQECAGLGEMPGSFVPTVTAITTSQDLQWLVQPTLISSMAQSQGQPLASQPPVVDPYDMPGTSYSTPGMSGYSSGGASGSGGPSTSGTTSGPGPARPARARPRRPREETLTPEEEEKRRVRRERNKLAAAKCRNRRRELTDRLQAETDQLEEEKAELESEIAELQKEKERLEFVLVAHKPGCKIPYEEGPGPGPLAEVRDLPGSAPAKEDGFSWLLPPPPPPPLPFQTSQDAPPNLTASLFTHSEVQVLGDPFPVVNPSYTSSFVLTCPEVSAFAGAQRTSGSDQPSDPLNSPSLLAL
The assay is described as follows: DULIP (scaled).

The target in assay [2] is T2, DDIT3 (Homo sapiens, UniProt P35638).
T2 chain: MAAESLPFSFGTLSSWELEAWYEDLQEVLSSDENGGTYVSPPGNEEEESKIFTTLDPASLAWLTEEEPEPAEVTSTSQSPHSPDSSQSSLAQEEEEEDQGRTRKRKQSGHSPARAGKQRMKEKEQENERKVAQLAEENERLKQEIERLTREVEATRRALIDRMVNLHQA
The experiment in a line: DULIP (scaled).

The target in assay [3] is T3, FOSL2 (Homo sapiens, UniProt P15408).
T3 chain: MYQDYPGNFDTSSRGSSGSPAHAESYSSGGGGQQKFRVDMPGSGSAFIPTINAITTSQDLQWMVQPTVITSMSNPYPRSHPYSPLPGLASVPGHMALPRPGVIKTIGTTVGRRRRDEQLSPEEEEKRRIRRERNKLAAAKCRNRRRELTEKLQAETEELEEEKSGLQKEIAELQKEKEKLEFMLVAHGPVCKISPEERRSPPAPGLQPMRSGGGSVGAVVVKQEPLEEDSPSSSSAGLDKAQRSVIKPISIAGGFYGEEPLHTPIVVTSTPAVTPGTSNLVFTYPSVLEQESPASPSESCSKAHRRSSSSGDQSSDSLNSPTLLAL
The assay is described as follows: DULIP (scaled).

Assay [4] concerns the target T4, ELF3 (Homo sapiens, UniProt P78545).
T4 chain: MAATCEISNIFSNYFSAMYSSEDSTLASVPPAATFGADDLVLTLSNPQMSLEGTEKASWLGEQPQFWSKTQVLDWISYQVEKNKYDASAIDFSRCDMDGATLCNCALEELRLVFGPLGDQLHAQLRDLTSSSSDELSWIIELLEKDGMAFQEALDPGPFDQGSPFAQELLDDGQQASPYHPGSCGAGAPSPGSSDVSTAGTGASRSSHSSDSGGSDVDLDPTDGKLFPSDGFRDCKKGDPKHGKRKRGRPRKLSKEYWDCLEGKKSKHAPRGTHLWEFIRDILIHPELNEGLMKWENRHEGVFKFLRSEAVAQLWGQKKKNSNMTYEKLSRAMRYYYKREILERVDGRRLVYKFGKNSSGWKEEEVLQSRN
The experiment in a line: DULIP (scaled).

Assay [5] addresses T5, MAP2K6 (Homo sapiens, UniProt P52564).
T5 chain: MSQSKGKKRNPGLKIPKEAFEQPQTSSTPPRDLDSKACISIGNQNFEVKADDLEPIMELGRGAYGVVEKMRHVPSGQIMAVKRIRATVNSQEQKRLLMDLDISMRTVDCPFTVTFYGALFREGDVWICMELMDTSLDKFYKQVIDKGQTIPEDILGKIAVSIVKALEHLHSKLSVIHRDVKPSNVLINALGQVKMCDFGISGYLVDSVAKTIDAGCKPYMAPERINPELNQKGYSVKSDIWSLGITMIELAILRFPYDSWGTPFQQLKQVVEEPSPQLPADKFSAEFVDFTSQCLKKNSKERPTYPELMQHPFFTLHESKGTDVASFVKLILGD
The assay is described as follows: DULIP (scaled).

The target in assay [6] is T6, CEBPG (Homo sapiens, UniProt P53567).
T6 chain: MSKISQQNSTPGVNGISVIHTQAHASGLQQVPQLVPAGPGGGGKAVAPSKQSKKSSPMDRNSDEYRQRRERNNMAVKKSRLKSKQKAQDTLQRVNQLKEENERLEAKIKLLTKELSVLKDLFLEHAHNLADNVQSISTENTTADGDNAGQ
The experiment in a line: DULIP (scaled).

The target of assay [7] is T3, FOSL2. The assay is described as follows: FCCS (live HEK293T cells).
The target of assay [8] is T4, ELF3. The experiment in a line: FCCS (live HEK293T cells).
For assay [9], the target named is T6, CEBPG. The experiment in a line: FCCS (live HEK293T cells).
Assay [10] deals with EIF3J (Homo sapiens, UniProt O75822). The experiment in a line: FCCS (live HEK293T cells).
Sequence of EIF3J (O75822 2-258): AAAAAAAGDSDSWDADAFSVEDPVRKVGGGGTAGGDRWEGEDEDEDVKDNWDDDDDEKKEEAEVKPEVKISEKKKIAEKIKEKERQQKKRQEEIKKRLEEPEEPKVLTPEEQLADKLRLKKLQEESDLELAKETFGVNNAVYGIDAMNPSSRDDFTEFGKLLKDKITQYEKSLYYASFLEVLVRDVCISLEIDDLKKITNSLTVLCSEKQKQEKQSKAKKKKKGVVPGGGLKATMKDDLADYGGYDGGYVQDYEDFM
The target of assay [11] is T7, CREBL2 (Homo sapiens, UniProt O60519).
T7 chain: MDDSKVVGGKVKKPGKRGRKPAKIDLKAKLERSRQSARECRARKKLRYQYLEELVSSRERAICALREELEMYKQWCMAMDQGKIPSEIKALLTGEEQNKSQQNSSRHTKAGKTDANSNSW
The assay is described as follows: FCCS (live HEK293T cells).

B1: NRF2 (protein)
chain: MMDLELPPPGLPSQQDMDLIDILWRQDIDLGVSREVFDFSQRRKEYELEKQKKLEKERQEQLQKEQEKAFFAQLQLDEETGEFLPIQPAQHIQSETSGSANYSQVAHIPKSDALYFDDCMQLLAQTFPFVDDNEVSSATFQSLVPDIPGHIESPVFIATNQAQSPETSVAQVAPVDLDGMQQDIEQVWEELLSIPELQCLNIENDKLVETTMVPSPEAKLTEVDNYHFYSSIPSMEKEVGNCSPHFLNAFEDSFSSILSTEDPNQLTVNSLNSDATVNTDFGDEFYSAFIAEPSISNSMPSPATLSHSLSELLNGPIDVSDLSLCKAFNQNHPESTAEFNDSDSGISLNTSPSVASPEHSVESSSYGDTLLGLSDSEVEELDSAPGSVKQNGPKTPVHSSGDMVQPLSPSQGQSTHVHDAQCENTPEKELPVSPGHRKTPFTKDKHSSRLEAHLTRDELRAKALHIPFPVEKIINLPVVDFNEMMSKEQFNEAQLALIRDIRRRGKNKVAAQNCRKRKLENIVELEQDLDHLKDEKEKLLKEKGENDKSLHLLKKQLSTLYLEVFSMLRDEDGKPYSPSEYSLQQTRDGNVFLVPKSKKPDVKKN
Broadly, the Kd is a measure of binding affinity in units of concentration. Turning to B1, the Kd in assay [1], in [2], in [3], in [4], in assay [5] and in assay [6] was over 9 µM each time. The Kd in assay [7], in [8], in assay [9], in assay [10] and in [11] was over 10 µM in each case.
